# In US20190071490A1 (BETH ISRAEL DEACONESS MEDICAL CENTER, published 2019):
# Substitutions are numbered along the chain they refer to. In names and notes the source's numbering stands.
# T1: human α-CGRP 1-37 (WT) (human, C-terminal amide; N-terminal biotin when captured on the SA chip; 125I-labelled in the radioligand assay)
# T1 construct: also called α-human
# T1 peptide: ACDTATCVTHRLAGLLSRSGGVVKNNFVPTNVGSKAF
# T2: rat α-CGRP (1-37) (rat, C-terminal amide; N-terminal biotin when captured on the SA chip)
# T2 construct: also called rat α (1-37); α-rat
# T2 peptide: T1 peptide with A1S, D3N, N25D, K35E
# B1: G1 variant M41 Fab (Fab, V domains shown)
# VH: EVQLVESGGGLVQPGGSLRLSCAASGFTFSNYWISWVRQAPGKGLEWVAEIRSKSDNSATHYADAVKGRFTISRDNAKNSLYLQMNSLRAEDTAVYYCTVYFDYGLAIQNYWGQGTLVTVSS
# VL: EIVLTQSPATLSLSPGERATLSCKASKNVTTYVSWYQQKPGQAPRLLIYAASNRYTGIPARFSGSGSGTDFTLTISSLEPEDFAVYYCSQSYNYPYTFGQGTKLEIK
# notes: Fab; constant domains as m1
# B2: G1 variant M42 Fab (Fab, V domains shown)
# VH: B1 VH with H61F, D64E
# VL: B1 VL
# notes: Fab; constant domains as m1
# B3: G1 variant M43 Fab (Fab, V domains shown)
# VH: B1 VH with S58C, D64E
# VL: B1 VL
# notes: Fab; constant domains as m1
# B4: G1 variant M44 Fab (Fab, V domains shown)
# VH: B1 VH with S58E, D64E
# VL: B1 VL
# notes: Fab; constant domains as m1
# B5: G1 variant M45 Fab (Fab, V domains shown)
# VH: B1 VH with S58E
# VL: B1 VL
# notes: Fab; constant domains as m1
# B6: G1 variant M46 Fab (Fab, V domains shown)
# VH: B1 VH with S58E, H61F, D64E
# VL: B1 VL
# notes: Fab; constant domains as m1
# B7: G1 variant M47 Fab (Fab, V domains shown)
# VH: B1 VH with S58G, D64E
# VL: B1 VL
# notes: Fab; constant domains as m1
# B8: G1 variant M48 Fab (Fab, V domains shown)
# VH: B1 VH with S58L, D64E
# VL: B1 VL
# notes: Fab; constant domains as m1
# B9: G1 variant M49 Fab (Fab, V domains shown)
# VH: B1 VH with S58Y, H61F, D64E
# VL: B1 VL
# notes: Fab; constant domains as m1
# B10: G1 variant M50 Fab (Fab, V domains shown)
# VH: B1 VH with N57R, D64E
# VL: B1 VL
# notes: Fab; constant domains as m1
# B11: G1 variant M51 Fab (Fab, V domains shown)
# VH: B1 VH with N57G, D64E
# VL: B1 VL with A50G, T56I
# notes: Fab; constant domains as m1; printed L561 read as L56I
# B12: G1 variant M52 Fab (Fab, V domains shown)
# VH: B1 VH with S58A, D64E
# VL: B1 VL with A50G, T56I
# notes: as for B11
# B13: G1 variant M53 Fab (Fab, V domains shown)
# VH: B1 VH with S58G, D64E
# VL: B1 VL with A50G, T56I
# notes: as for B11
# B14: G1 variant M54 Fab (Fab, V domains shown)
# VH: B1 VH with S58P, D64E
# VL: B1 VL with T30A, T56L
# notes: Fab; constant domains as m1
# B15: G1 variant M55 Fab (Fab, V domains shown)
# VH: B1 VH with S58E
# VL: B1 VL with T30A, A50G, T56S
# notes: Fab; constant domains as m1
# B16: G1 variant M56 Fab (Fab, V domains shown)
# VH: B1 VH with H61F, D64E
# VL: B1 VL with T30D, A50G, T56S
# notes: Fab; constant domains as m1
# B17: G1 variant M57 Fab (Fab, V domains shown)
# VH: B1 VH with S58E, D64E
# VL: B1 VL with T30D, A50G, T56S
# notes: Fab; constant domains as m1
# B18: G1 variant M58 Fab (Fab, V domains shown)
# VH: B1 VH with S58I, H61F, D64E
# VL: B1 VL with T30D, A50G, T56S
# notes: Fab; constant domains as m1
# B19: G1 variant M59 Fab (Fab, V domains shown)
# VH: B1 VH with S58N, H61F, D64E
# VL: B1 VL with T30D, A50G, T56S
# notes: Fab; constant domains as m1
# B20: G1 variant M60 Fab (Fab, V domains shown)
# VH: B1 VH with S58R, H61F, D64E
# VL: B1 VL with T30D, A50G, T56S
# notes: Fab; constant domains as m1
# B21: G1 variant M61 Fab (Fab, V domains shown)
# VH: B1 VH with K54Q, H61F, D64E
# VL: B1 VL with T30G, A50G, A51H, T56L
# notes: Fab; constant domains as m1
# B22: G1 variant M62 Fab (Fab, V domains shown)
# VH: B1 VH with S58E, D64E
# VL: B1 VL with T30G, A50G, A51H
# notes: Fab; constant domains as m1
# B23: G1 variant M63 Fab (Fab, V domains shown)
# VH: B1 VH with S58T, D64E
# VL: B1 VL with T30G, T56L
# notes: Fab; constant domains as m1
# B24: G1 variant M64 Fab (Fab, V domains shown)
# VH: B1 VH with S58V, D64E
# VL: B1 VL with T30G, T56L
# notes: Fab; constant domains as m1
# B25: G1 variant M65 Fab (Fab, V domains shown)
# VH: B1 VH with N57C, D64E
# VL: B1 VL with T30G, T56I
# notes: Fab; constant domains as m1
# B26: G1 variant M66 Fab (Fab, V domains shown)
# VH: B1 VH with N57E, D64E
# VL: B1 VL with T30G, A50G, T56I
# notes: as for B11
# B27: G1 variant M67 Fab (Fab, V domains shown)
# VH: B1 VH with N57F, D64E
# VL: B1 VL with T30G, A50G, T56I
# notes: as for B11
# B28: G1 variant M68 Fab (Fab, V domains shown)
# VH: B1 VH with S58D
# VL: B1 VL with T30G, A50G, T56I
# notes: as for B11
# B29: G1 variant M69 Fab (Fab, V domains shown)
# VH: B1 VH with S58E, D64E
# VL: B1 VL with T30G, A50G, T56I
# notes: as for B11
# B30: G1 variant M70 Fab (Fab, V domains shown)
# VH: B1 VH with N57S, D64E
# VL: B1 VL with T30G, A50G, T56I
# notes: as for B11
# B31: G1 variant M71 Fab (Fab, V domains shown)
# VH: B1 VH with N57Y, D64E
# VL: B1 VL with T30G, A50G, T56I
# notes: as for B11
# B32: G1 variant M72 Fab (Fab, V domains shown)
# VH: B1 VH with N57A, D64E
# VL: B1 VL with T30G, A50G, T56S
# notes: Fab; constant domains as m1
# Target: T1, human α-CGRP 1-37 (WT)
# Assay: Biacore, 37°C, Fab over CGRP on SA chip
# Method: (§1) Biacore assay for affinity determination. […] All Biacore assays were conducted in HBS-EP running buffer (10 mM HEPES pH 7.4, 150 mM NaCl, 3 mM EDTA, 0.005% v/v polysorbate P20). CGRP surfaces were prepared by diluting the N-biotinylated CGRP to a concentration of less than 0.001 mg/mL into HBS-EP buffer and injecting it across the SA sensor chip using variable contact times. […] Samples were typically injected for 1 minute at 100 μL/min and dissociation times of at least 10 minutes were allowed. […] An entire titration series (typically generated in duplicate) was fit globally to a 1:1 Langmuir binding model using the BIAevaluation program. This returned a unique pair of association and dissociation kinetic rate constants (respectively, kₒₙ and koff) for each binding interaction, whose ratio gave the equilibrium dissociation constant (KD=koff/kₒₙ). […]
Binder,Kd [nM],koff [s⁻¹]
B1,1.31,0.00021
B2,2.61,0.000417
B3,1.64,0.000263
B4,2.05,0.00021
B5,1.85,0.000211
B6,3.37,0.000539
B7,2.08,0.000332
B8,5.26,0.000842
B9,3.72,0.000595
B10,2.54,0.000406
B11,0.82,0.000131
B12,1.76,0.000281
B13,2.34,0.000374
B14,11.2,0.00179
B15,2.99,0.000478
B16,2.99,0.000479

Binder,Kd [nM],koff [s⁻¹]
B17,3.08,0.000322
B18,12.2,0.00195
B19,3.28,0.000524
B20,5.69,0.000911
B21,2.87,0.000459
B22,5.86,0.000557
B23,9.38,0.0015
B24,8.25,0.00132
B25,5.02,0.000803
B26,3.25,0.00052
B27,5.13,0.00082
B28,2.68,0.000428
B29,4.58,0.000733
B30,3.49,0.000559
B31,8,0.00128
B32,2.5,0.0004

# Target: T2, rat α-CGRP (1-37)
# Assay: Biacore, 37°C, Fab over CGRP on SA chip
# Method: as §1
Binder,Kd [nM],koff [s⁻¹],binding result
B1,252,0.00453,
B2,418,0.00752,
B3,252,0.00453,
B4,443,0.00613,
B5,259,0.00558,
B6,163,0.00294,
B7,457,0.00823,
B8,1910,0.0343,
B9,822,0.0148,
B10,294,0.0053,
B11,65.6,0.00118,
B12,127,0.00229,
B13,106,0.00191,
B14,120,0.00216,
B15,325,0.00585,
B16,519,0.00935,

Binder,Kd [nM],koff [s⁻¹],binding result
B17,1200,0.0104,
B18,,,no binding
B19,683,0.0123,
B20,1510,0.0272,
B21,289,0.00521,
B22,242,0.00575,
B23,147,0.00265,
B24,1300,0.0234,
B25,226,0.00407,
B26,284,0.00511,
B27,95,0.00171,
B28,376,0.00676,
B29,101,0.00181,
B30,337,0.00607,
B31,118,0.00212,
B32,219,0.00395,
